Experiment [1] concerns the target STAT1 (Homo sapiens) (UniProt P42224). Nature of the experiment: analytical ultracentrifugation. The note with it: cited from earlier work.
The target in experiment [2] is T1, untagged STAT1, wild type (human), P42224.
T1 chain: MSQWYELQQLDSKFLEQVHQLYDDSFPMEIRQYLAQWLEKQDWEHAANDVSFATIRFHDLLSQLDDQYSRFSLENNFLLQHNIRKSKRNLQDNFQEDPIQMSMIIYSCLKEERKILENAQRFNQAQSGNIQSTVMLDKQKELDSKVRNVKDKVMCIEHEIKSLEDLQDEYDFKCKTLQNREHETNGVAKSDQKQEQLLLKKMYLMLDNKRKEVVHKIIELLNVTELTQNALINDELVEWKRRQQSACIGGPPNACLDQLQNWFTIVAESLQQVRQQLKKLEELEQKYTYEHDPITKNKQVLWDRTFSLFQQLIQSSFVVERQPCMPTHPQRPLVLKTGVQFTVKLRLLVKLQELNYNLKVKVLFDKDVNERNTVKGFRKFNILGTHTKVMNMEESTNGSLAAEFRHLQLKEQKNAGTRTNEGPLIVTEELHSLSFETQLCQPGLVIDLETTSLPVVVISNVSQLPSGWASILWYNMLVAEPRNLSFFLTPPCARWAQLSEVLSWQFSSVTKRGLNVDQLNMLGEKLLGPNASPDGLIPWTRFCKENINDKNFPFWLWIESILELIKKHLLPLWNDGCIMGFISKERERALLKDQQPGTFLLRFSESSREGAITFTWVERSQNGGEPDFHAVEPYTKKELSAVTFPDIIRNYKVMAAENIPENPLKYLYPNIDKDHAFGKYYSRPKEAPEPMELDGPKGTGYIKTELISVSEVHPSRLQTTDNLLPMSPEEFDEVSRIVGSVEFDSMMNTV
Nature of the experiment: native gel or EMSA; extracts with GFP-tagged and with untagged STAT1 mixed and co-incubated for 0, 15 or 30 min at room temperature with [33P]-labelled M67 (single GAS site); band of intermediate mobility. The settings on record: remark: other sources report otherwise.

The values below come from publication PMC4284922.

Regarding STAT1 (from UniProt P42224), the Kd in experiment [1] is 50 nM.

B1: untagged STAT1, wild type, P42224 1-750 (natural protein)
chain: MSQWYELQQLDSKFLEQVHQLYDDSFPMEIRQYLAQWLEKQDWEHAANDVSFATIRFHDLLSQLDDQYSRFSLENNFLLQHNIRKSKRNLQDNFQEDPIQMSMIIYSCLKEERKILENAQRFNQAQSGNIQSTVMLDKQKELDSKVRNVKDKVMCIEHEIKSLEDLQDEYDFKCKTLQNREHETNGVAKSDQKQEQLLLKKMYLMLDNKRKEVVHKIIELLNVTELTQNALINDELVEWKRRQQSACIGGPPNACLDQLQNWFTIVAESLQQVRQQLKKLEELEQKYTYEHDPITKNKQVLWDRTFSLFQQLIQSSFVVERQPCMPTHPQRPLVLKTGVQFTVKLRLLVKLQELNYNLKVKVLFDKDVNERNTVKGFRKFNILGTHTKVMNMEESTNGSLAAEFRHLQLKEQKNAGTRTNEGPLIVTEELHSLSFETQLCQPGLVIDLETTSLPVVVISNVSQLPSGWASILWYNMLVAEPRNLSFFLTPPCARWAQLSEVLSWQFSSVTKRGLNVDQLNMLGEKLLGPNASPDGLIPWTRFCKENINDKNFPFWLWIESILELIKKHLLPLWNDGCIMGFISKERERALLKDQQPGTFLLRFSESSREGAITFTWVERSQNGGEPDFHAVEPYTKKELSAVTFPDIIRNYKVMAAENIPENPLKYLYPNIDKDHAFGKYYSRPKEAPEPMELDGPKGTGYIKTELISVSEVHPSRLQTTDNLLPMSPEEFDEVSRIVGSVEFDSMMNTV
modifications: here or on the partner: phosphotyrosine at 701 (tyrosine-phosphorylated, from IFNγ-stimulated cells); phosphotyrosine at 701 (tyrosine-phosphorylated, from IFNγ-stimulated cells)
As for B1, in experiment [2], the half-life of the dimer was > 10 min.
